In US5489670A, “Human uroguanylin” (G. D. Searle & Co., priority 1993, dated 1996):
No end group written: not given here.

Key:
GC-C in T84 cells = target: T1, GC-C in T84 cells (Homo sapiens, UniProt P25092); test: Cyclic GMP accumulation in T84 cells; format: cell-based; details: for bioactivity of purified urine peaks in T84 cell cyclic GMP bioassay: peptides purified from human urine, microbore HPLC C8
T1 construct: host or cells: T84 human colon carcinoma cells
Protocol: (§1) FIG. 3(a) and (b). FIG. 3(a) Concentration-response effect of synthetic human uroguanylin, human guanylin and E. coli ST5-18 (STa) on cyclic GMP levels in T84 cells. The cells were incubated with various concentrations of ligands for 30 min. Values represent mean±SE (n=4). FIG. 3(b) Displacement of ^125 I-STa specific binding from T84 cells by human uroguanylin, human guanylin and STa. Cells were incubated for 30 min at 37° C. with labeled STa and indicated concentrations of ligands. Specific binding (%) was determined by dividing the specifically bound ^125 I-STa at each ligand concentration by the specifically bound ^125 I-STa in the absence of ligands. Each determination represents the mean of four wells examined.
Cell Culture. A cultured human colon carcinoma cell line (T84) was obtained from the American Type Culture Collection (Rockville, Maryland) (ATCC No. CCL 248) at passage 52. Cells were grown to confluency in 24-well culture plates with a 1:1 mixture of Ham's F12 medium and Dulbecco's modified Eagle's medium (DMEM), supplemented with 10% fetal calf serum, 100 IU/ml penicillin, and 100 μg/ml streptomycin. Cells were used at passages 54-60.
Cyclic GMP determination. Monolayers of T84 cells in 24-well plates were washed twice with 1 ml/well DMEM, then incubated at 37° C. for 10 min with 0.5 ml DMEM containing 1 mM isobutylmethylxanthine, a phosphodiesterase inhibitor. Agents and fractions were then added for the indicated time as described in the results section, below. The media was then aspirated and the reaction terminated by the addition of ice cold 0.5 ml of 0.1N HC1. Aliquots were then evaporated to dryness under nitrogen and then resuspended in 5 mM sodium acetate buffer, pH 6.4. The samples were then measured for cyclic GMP by conventional RIA as described by Steiner et al. (13).

receptors on T84 cells = target: T2, receptors on T84 cells (Homo sapiens, UniProt P25092); test: 125I-ST radioligand competitive binding assay on T84 cells; details: 30 min at 37° C., pH 5.5
T2 construct: host or cells: T84 human colon carcinoma cells
Protocol: as §1
Radioligand Binding Assay. ^125 I-labeled ST5-18 (^125 I-ST) was prepared by the Iodo-Gen method as previously described (3). T84 cell monolayers were washed two times with 1.0 ml per well of ice-cold binding assay buffer (Earle's medium containing 25 mM 2[N-Morpholino]ethanesulfonic acid (MES), pH 5.5). The cells were incubated for 30 min at 37° C. in 0.5 ml per well of binding assay buffer with ^125 I-ST (100,000 cpm per well) and unlabeled peptides. […] This volume was transferred to tubes and assayed for radioactivity by a multigamma counter. Results are expressed as the percentage specifically bound.

rat proximal colon = test: Short-circuit current (Isc) in rat proximal colon, Ussing chamber; details: 0.2 μM, mucosal addition
Protocol: FIG. 4. Effect of synthetic human uroguanylin on short-circuit current (Isc) of rat colon. Effect of human uroguanylin (0.2 μM) on Isc across rat proximal colon after a mucosal addition. The response is characteristic of results from 3 other experiments.
Measurement of Short-Circuit Current (ISc) in Rat Colon. Rat proximal colon tissue, consisting of only mucosa and submucosa, was mounted between two Ussing half-chambers and bathed on both sides similar to previously reported (3). Electrical measurements were monitored with an automatic voltage clamp, and direct connecting voltage-and current-passing electrodes were used to measure trans epithelial potential difference and Isc. Tissues were equilibrated under short-circuit conditions until Isc had stabilized.

T1 sequence (P25092 24-1073): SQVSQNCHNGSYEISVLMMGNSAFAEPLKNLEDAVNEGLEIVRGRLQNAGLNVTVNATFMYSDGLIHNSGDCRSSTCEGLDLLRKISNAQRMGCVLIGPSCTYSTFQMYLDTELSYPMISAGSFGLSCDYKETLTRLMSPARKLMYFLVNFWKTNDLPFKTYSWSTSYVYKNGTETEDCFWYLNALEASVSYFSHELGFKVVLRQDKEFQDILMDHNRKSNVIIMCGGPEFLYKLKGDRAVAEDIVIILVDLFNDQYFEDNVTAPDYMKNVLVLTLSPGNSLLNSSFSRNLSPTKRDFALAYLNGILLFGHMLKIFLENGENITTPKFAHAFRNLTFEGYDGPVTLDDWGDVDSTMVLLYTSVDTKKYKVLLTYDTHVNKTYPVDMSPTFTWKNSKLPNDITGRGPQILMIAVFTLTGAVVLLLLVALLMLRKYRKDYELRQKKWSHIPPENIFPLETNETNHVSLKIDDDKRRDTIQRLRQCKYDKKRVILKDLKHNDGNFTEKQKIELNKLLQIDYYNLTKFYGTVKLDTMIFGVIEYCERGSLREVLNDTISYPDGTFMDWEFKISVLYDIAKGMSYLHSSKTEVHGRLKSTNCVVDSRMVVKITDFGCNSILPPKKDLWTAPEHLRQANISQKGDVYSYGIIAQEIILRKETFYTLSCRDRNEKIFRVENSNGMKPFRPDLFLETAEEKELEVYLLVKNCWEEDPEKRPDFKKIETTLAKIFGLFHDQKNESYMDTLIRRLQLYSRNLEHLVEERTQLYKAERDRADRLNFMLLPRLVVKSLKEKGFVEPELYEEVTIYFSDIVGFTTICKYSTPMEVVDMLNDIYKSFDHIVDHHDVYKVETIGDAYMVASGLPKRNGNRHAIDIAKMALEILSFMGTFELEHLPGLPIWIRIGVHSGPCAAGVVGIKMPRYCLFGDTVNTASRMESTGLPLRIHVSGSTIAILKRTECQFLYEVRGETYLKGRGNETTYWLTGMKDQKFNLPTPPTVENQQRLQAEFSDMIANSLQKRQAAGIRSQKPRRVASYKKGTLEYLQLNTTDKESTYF
T2 sequence (P25092 24-1073): as above

“DDCELCVNVACTGCL [peak 2, peptide from human urine lacking the N-terminal asparagine, likely a degradation product of peak 1]” was tested, and the “bioactivity of purified urine peaks in T84 cell cyclic GMP bioassay” value (GC-C in T84 cells) was “bioactive”.
With “human guanylin: first known endogenous activator of intestinal guanylate cyclase (PGTCEICAYAACTGC; ends and bridges not checked; cysteine pairing not given here; UniProt Q02747 101-115, looked up)” the “relative affinity, displacement of 125I-ST5-18 specific binding from T84 cells” value (receptors on T84 cells) was “much lower affinity”.
In the case of “NDDCELCVNVACTGCL [human uroguanylin, sedecapeptide, endogenous regulator of intestinal guanylate cyclase, isolated from human urine and chemically synthesized]”, the “effect on short-circuit current (Isc) of rat proximal colon” value (rat proximal colon) is reported as “sustained rise in Isc”, the “effect on T84 cell cyclic GMP levels” value (GC-C in T84 cells; T84 cells, 30 min incubation with ligand, 1 mM isobutylmethylxanthine) is reported as “concentration-dependent increase” and the “relative potency for activation of GC-C in T84 cells” value (GC-C in T84 cells; T84 cells, cyclic GMP, concentration-response) is reported as “more potent than human guanylin, but less potent than ST”. The “bioactivity of purified urine peaks in T84 cell cyclic GMP bioassay” value (GC-C in T84 cells) was “bioactive”.
